# B1: Subtilisin BPN', P00782 (parent)
# chain: MRGKKVWISLLFALALIFTMAFGSTSSAQAAGKSNGEKKYIVGFKQTMSTMSAAKKKDVISEKGGKVQKQFKYVDAASATLNEKAVKELKKDPSVAYVEEDHVAHAYAQSVPYGVSQIKAPALHSQGYTGSNVKVAVIDSGIDSSHPDLKVAGGASMVPSETNPFQDNNSHGTHVAGTVAALNNSIGVLGVAPSASLYAVKVLGADGSGQYSWIINGIEWAIANNMDVINMSLGGPSGSAALKAAVDKAVASGVVVVAAAGNEGTSGSSSTVGYPGKYPSVIAVGAVDSSNQRASFSSVGPELDVMAPGVSIQSTLPGNKYGAYNGTSMASPHVAGAAALILSKHPNWTNTQVRSSLENTTTKLGDSFYYGKGLINVQAAAQ
# Variants of: B1
# Conditions: Bacillus amyloliquefaciens, pH 8, Thermal, DSC, Tris-HCl 5.0 mM, KCl 50 mM, reversible: yes, structure 1SUP, whole UniProt chain shown; for ddG of mutation (higher = less stable): 58.8 °C
variant,measurement,value
MRGKKVWISLLFALALIFTMAFGSTSSAQAAGKSNGEKKYIVGFKQTMSTMSAAKKKDVISEKGGKVQKQFKYVDAASATLNEKAVKELKKDPSVAYVEEDHVAHAYAQSVPYGVSQIKAPALHSQGYTGSNVKVAVIDSGIDSSHPDLKVAGGASMVPSETNPFQDNNSHGTHVAGTVAALNNSIGVLGVAPSASLYAVKVLGADGSGQYSWIINGIEWAIANNMDVINMSLGGPSGSAALKAAVDKAVASGVVVVAAAGNEGTSGSSSTVGYPAKYPSVIAVGAVDSSNQRASFSSVGPELDVMAPGVSIQSTLPGNKYGAYNGTSMASPHVAGAAALILSKHPNWTNTQVRSSLENTTTKLGDSFYYGKGLINVQAAAQ [G276A],ddG of mutation (higher = less stable),-0.3 kcal/mol
same,Tm,59.6 °C
same,"change of melting temperature, mutant - wild type (higher = more stable)",1.1 °C
MRGKKVWISLLFALALIFTMAFGSTSSAQAAGKSNGEKKYIVGFKQTMSTMSAAKKKDVISEKGGKVQKQFKYVDAASATLNEKAVKELKKDPSVAYVEEDHVAHAYAQSVPYGVSQIKAPALHSQGYTGSNVKVAVIDSGIDSSHPDLKVAGGASMVPSETNPFQDNNSHGTHVAGTVAALNNSIGVLGVAPSASLYAVKVLGADGSGQYSWIINGIEWAIANNMDVINMSLGGPSGSAALKAAVDKAVASGVVVVAAAGNEGTSGSSSTVGYPGKYPSVIAVGAVDSSNQRASFSSVGPELDVMAPGVSIQSTLPGNKYGAKNGTSMASPHVAGAAALILSKHPNWTNTQVRSSLENTTTKLGDSFYYGKGLINVQAAAQ [Y324K],ddG of mutation (higher = less stable),-0.72 kcal/mol
MRGKKVWISLLFALALIFTMAFGSTSSAQAAGKSNGEKKYIVGFKQTMSTMSAAKKKDVISEKGGKVQKQFKYVDAASATLNEKAVKELKKDPSVAYVEEDHVAHAYAQSVPYGVSQIKAPALHSQGYTGSNVKVAVIDSGIDSSHPDLKVAGGASFVPSETNPFQDNNSHGTHVAGTVAALNNSIGVLGVAPSASLYAVKVLGADGSGQYSWIINGIEWAIANNMDVINMSLGGPSGSAALKAAVDKAVASGVVVVAAAGNEGTSGSSSTVGYPGKYPSVIAVGAVDSSNQRASFSSVGPELDVMAPGVSIQSTLPGNKYGAYNGTSMASPHVAGAAALILSKHPNWTNTQVRSSLENTTTKLGDSFYYGKGLINVQAAAQ [M157F],ddG of mutation (higher = less stable),-0.48 kcal/mol
same,Tm,60.3 °C
same,"change of melting temperature, mutant - wild type (higher = more stable)",1.8 °C
MRGKKVWISLLFALALIFTMAFGSTSSAQAAGKSNGEKKYIVGFKQTMSTMSAAKKKDVISEKGGKVQKQFKYVDAASATLNEKAVKELKKDPSVAYVEEDHVAHAYAQSVPYGVSQIKAPALHSQGYTGSNVKVAVIDSGIDSSHPDLKVAGGASMVPSETNPFQDNNSHGTHVAGTVAALNNSIGVLGVAPSASLYAVKVLGADGSGQYSWIINGIEWAIANNMDVINMSLGGPSGSAALKAAVDKAVASGVVVVAAAGNEGTSGSSSTVGYPGKYPSVIAVGAVDSSNQRASFSSVGPELDVMAPGVSICSTLPGNKYGAYNGTSMASPHVAGAAALILSKHPNWTNTQVRSSLENTTTKLGDSFYYGKGLINVQAAAQ [Q313C],ddG of mutation (higher = less stable),-1.25 kcal/mol
same,Tm,63.2 °C
same,"change of melting temperature, mutant - wild type (higher = more stable)",4.7 °C
MRGKKVWISLLFALALIFTMAFGSTSSAQAAGKSNGEKKYIVGFKQTMSTMSAAKKKDVISEKGGKVQKQFKYVDAASATLNEKAVKELKKDPSVAYVEEDHVAHAYAQSVPYGVSQIKAPALHSQGYTGSNVKVAVIDSGIDSSHPDLKVAGGASMVPSETNPFQDNNSHGTHVAGTVAALNNSIGVLGVAPSASLYAVKVLGADGSGQYSWIINGIEWAIANNMDVINMSLGGPSGSAALKAAVDKAVASGVVVVAAAGNEGTSGSSSTVGYPGKYPSVIAVGAVDSSNQRASFSSVGPELDVMAPGVSIQSTLPGNKYGAYSGTSMASPHVAGAAALILSKHPNWTNTQVRSSLENTTTKLGDSFYYGKGLINVQAAAQ [N325S],ddG of mutation (higher = less stable),-1.07 kcal/mol
same,Tm,62.5 °C
same,"change of melting temperature, mutant - wild type (higher = more stable)",4 °C
MRGKKVWISLLFALALIFTMAFGSTSSAQAAGKSNGEKKYIVGFKQTMSTMSAAKKKDVISEKGGKVQKQFKYVDAASATLNEKAVKELKKDPSVAYVEEDHVAHAYAQSVPYGVSQIKAPALHSQGYTGSNVKVAVIDSGIDSSHPDLKVAGGASMVPSETNPFQDNNSHGTHVAGTVAALDNSIGVLGVAPSASLYAVKVLGADGSGQYSWIINGIEWAIANNMDVINMSLGGPSGSAALKAAVDKAVASGVVVVAAAGNEGTSGSSSTVGYPGKYPSVIAVGAVDSSNQRASFSSVGPELDVMAPGVSIQSTLPGNKYGAYNGTSMASPHVAGAAALILSKHPNWTNTQVRSSLENTTTKLGDSFYYGKGLINVQAAAQ [N183D],ddG of mutation (higher = less stable),-0.45 kcal/mol
same,Tm,60.2 °C
same,"change of melting temperature, mutant - wild type (higher = more stable)",1.7 °C

# Source: FireProtDB (doi:10.1021/bi00444a012)
